Source: publication doi:10.1101/2021.04.14.439859

Experiments:
Assay in all cases: fluorescence polarisation
TLH3 nucleosome (human) = TLH3 nucleosome (human) (UniProt P04908)
TLH4 nucleosome (human) = TLH4 nucleosome (human) (UniProt P04908)
[1] = target: H3-H4 (Alexa-488 H4) (human) (UniProt P68431)
[2] = target: H2A-H2B (Alexa-488 H2B) (human) (UniProt P04908)

Question: “SMARCAD1 (from UniProt Q9H4L7 1-1026) (enzyme)” was tested. Which Kd (TLH3 nucleosome (human)) did it give?
Answer: 330 nM

Question: What about the Kd (TLH4 nucleosome (human)) of the same substance?
Answer: 110 nM

Question: What about the Kd [1] of the same substance?
Answer: 1.2 nM

Question: And the Kd [2]?
Answer: 10 nM
